pEC50: −log10 of the molar value.

GST-Magi3 PDZ domain 1, sequence (Q5TCQ9 other isoform, or with tags, fused parts or gaps limits assumed): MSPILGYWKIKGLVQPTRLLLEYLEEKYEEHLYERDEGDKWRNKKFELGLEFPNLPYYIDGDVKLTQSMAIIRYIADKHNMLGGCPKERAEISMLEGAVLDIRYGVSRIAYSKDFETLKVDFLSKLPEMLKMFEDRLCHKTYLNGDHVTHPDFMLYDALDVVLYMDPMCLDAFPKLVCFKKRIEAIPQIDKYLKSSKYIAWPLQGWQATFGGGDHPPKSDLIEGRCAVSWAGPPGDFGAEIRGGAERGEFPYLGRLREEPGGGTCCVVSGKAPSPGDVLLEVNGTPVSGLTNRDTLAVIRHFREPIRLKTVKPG
GST-SAST1 KIAA PDZ domain, sequence (Q9Y2H9 other isoform, or with tags, fused parts or gaps): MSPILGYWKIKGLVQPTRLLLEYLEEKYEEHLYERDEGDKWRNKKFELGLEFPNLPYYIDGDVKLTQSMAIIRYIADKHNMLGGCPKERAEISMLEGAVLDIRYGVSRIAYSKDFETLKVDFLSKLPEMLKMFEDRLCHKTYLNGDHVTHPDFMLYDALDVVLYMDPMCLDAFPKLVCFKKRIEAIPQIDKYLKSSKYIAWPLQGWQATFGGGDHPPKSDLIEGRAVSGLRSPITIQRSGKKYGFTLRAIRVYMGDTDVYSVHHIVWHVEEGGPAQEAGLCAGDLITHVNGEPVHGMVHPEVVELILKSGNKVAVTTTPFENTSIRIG
GST-DLG3 PDZ domains 1-2, sequence (Q92796 other isoform, or with tags, fused parts or gaps limits assumed): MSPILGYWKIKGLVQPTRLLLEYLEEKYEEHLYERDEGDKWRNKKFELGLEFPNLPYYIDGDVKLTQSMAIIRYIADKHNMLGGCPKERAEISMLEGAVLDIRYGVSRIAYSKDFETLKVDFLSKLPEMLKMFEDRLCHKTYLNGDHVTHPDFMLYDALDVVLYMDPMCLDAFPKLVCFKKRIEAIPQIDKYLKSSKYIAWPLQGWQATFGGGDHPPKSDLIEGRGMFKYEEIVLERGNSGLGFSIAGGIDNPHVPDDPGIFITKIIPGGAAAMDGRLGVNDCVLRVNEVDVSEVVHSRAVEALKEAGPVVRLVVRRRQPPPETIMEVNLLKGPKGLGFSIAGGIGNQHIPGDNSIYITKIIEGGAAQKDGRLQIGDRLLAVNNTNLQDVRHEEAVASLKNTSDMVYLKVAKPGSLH

This assay addresses HPV 16 E6 C-terminal PL peptide (TQL), biotinylated (HPV 16). Description: G assay, HPV16 E6 PL peptide titrated against a constant amount of GST-PDZ.
What is called pEC50 is −log10 of the EC50, conventionally taken in molar units. Higher therefore signals a low EC50. For the substance GST-DLG2 PDZ domain 3, the pEC50 is 5.80. In turn, “GST-DLG3 PDZ domains 1-2 (from UniProt Q92796 125-316)” gave a pEC50 of 5.42. Substance GST-MAGI1 PDZ domain 2 gave a negative logarithm of the EC50 (pEC50) of 7.25. Substance “GST-Magi3 PDZ domain 1 (from UniProt Q5TCQ9 18-106)” had a pEC50 of 6.51. “GST-SAST1 KIAA PDZ domain (from UniProt Q9Y2H9 960-1062)” showed a negative-log EC50 (pEC50) of 6.24. Compared with the last substance, the pEC50 is 0.27 log units lower.

As for GST-SAST2 PDZ domain, the pEC50 was 5.92.

The substance GST-SIP1 PDZ domain 1 gave a pEC50 of 5.12.

“GST-VARTUL (PDZ domain not stated) (from UniProt Q14160 720-955)” gave a pEC50 of 6.03.

Values taken from patent US20040018487A1.
